# Assay results: PMC3081611
# Molecular target: CurA ACPI-ACPII-ACPIII tridomain
# Test: negative stain electron microscopy
substance,measurement,value
CurA ACPI-ACPII-ACPIII tridomain (domain or fragment),percent existing as dimers,25%
same,stoichiometry N,2
